Test results taken from patent publication US20180071366A1.
Numbered stars: 1 amine (or outer) side, 2 acyl side, 3 side chain; on linkers, the order of the positions; unused ones are H or OH. Bridge positions count the residues as written; N and C are the ends. Square brackets hold non-standard residues; d marks the D form. * marks the point of attachment. C20 diacid = O=C(O)CCCCCCCCCCCCCCCCCCC(=O)*; γGlu = O=C(O)[C@H](CCC(=O)[*:2])N[*:1]; Hyp = O=C(O)[C@@H]1C[C@@H](O)CN1; NMeI = CC[C@H](C)[C@H](NC)C(=O)O; Aad = N[C@@H](CCCC(=O)O)C(=O)O; Sar = CNCC(=O)O

B1: Compound 42 (peptide)
peptide: {C20 diacid-γGlu}-RDGTATKATQRLADFLQRSSF[Sar]A[NMeI]LSSTETGSNT[Hyp]-NH2
modifications: lactam 2-7
SMILES: CC[C@H](C)[C@@H](C(=O)N[C@@H](CC(C)C)C(=O)N[C@@H](CO)C(=O)N[C@@H](CO)C(=O)N[C@H](C(=O)N[C@@H](CCC(=O)O)C(=O)N[C@H](C(=O)NCC(=O)N[C@@H](CO)C(=O)N[C@@H](CC(N)=O)C(=O)N[C@H](C(=O)N1C[C@H](O)C[C@H]1C(N)=O)[C@@H](C)O)[C@@H](C)O)[C@@H](C)O)N(C)C(=O)[C@H](C)NC(=O)CN(C)C(=O)[C@H](Cc1ccccc1)NC(=O)[C@H](CO)NC(=O)[C@H](CO)NC(=O)[C@H](CCCNC(=N)N)NC(=O)[C@H](CCC(N)=O)NC(=O)[C@H](CC(C)C)NC(=O)[C@H](Cc1ccccc1)NC(=O)[C@H](CC(=O)O)NC(=O)[C@H](C)NC(=O)[C@H](CC(C)C)NC(=O)[C@H](CCCNC(=N)N)NC(=O)[C@H](CCC(N)=O)NC(=O)[C@@H](NC(=O)[C@H](C)NC(=O)[C@@H]1CCCCNC(=O)C[C@H](NC(=O)[C@H](CCCNC(=N)N)NC(=O)CC[C@H](NC(=O)CCCCCCCCCCCCCCCCCCC(=O)O)C(=O)O)C(=O)NCC(=O)N[C@@H]([C@@H](C)O)C(=O)N[C@@H](C)C(=O)N[C@@H]([C@@H](C)O)C(=O)N1)[C@@H](C)O
B2: Compound 41 (peptide)
peptide: {C20 diacid-γGlu}-RDGTATKATQRLADFLQRSSF[Sar]A[NMeI]LSSTEVGSNT[Hyp]-NH2
modifications: lactam 2-7
SMILES: CC[C@H](C)[C@@H](C(=O)N[C@@H](CC(C)C)C(=O)N[C@@H](CO)C(=O)N[C@@H](CO)C(=O)N[C@H](C(=O)N[C@@H](CCC(=O)O)C(=O)N[C@H](C(=O)NCC(=O)N[C@@H](CO)C(=O)N[C@@H](CC(N)=O)C(=O)N[C@H](C(=O)N1C[C@H](O)C[C@H]1C(N)=O)[C@@H](C)O)C(C)C)[C@@H](C)O)N(C)C(=O)[C@H](C)NC(=O)CN(C)C(=O)[C@H](Cc1ccccc1)NC(=O)[C@H](CO)NC(=O)[C@H](CO)NC(=O)[C@H](CCCNC(=N)N)NC(=O)[C@H](CCC(N)=O)NC(=O)[C@H](CC(C)C)NC(=O)[C@H](Cc1ccccc1)NC(=O)[C@H](CC(=O)O)NC(=O)[C@H](C)NC(=O)[C@H](CC(C)C)NC(=O)[C@H](CCCNC(=N)N)NC(=O)[C@H](CCC(N)=O)NC(=O)[C@@H](NC(=O)[C@H](C)NC(=O)[C@@H]1CCCCNC(=O)C[C@H](NC(=O)[C@H](CCCNC(=N)N)NC(=O)CC[C@H](NC(=O)CCCCCCCCCCCCCCCCCCC(=O)O)C(=O)O)C(=O)NCC(=O)N[C@@H]([C@@H](C)O)C(=O)N[C@@H](C)C(=O)N[C@@H]([C@@H](C)O)C(=O)N1)[C@@H](C)O
B3: Compound 37 (peptide)
peptide: {C20 diacid-γGlu}-EDGTATKATERLA[Aad]FLQRSSF[Sar]A[NMeI]LSSTEVGSNT[Hyp]-NH2
modifications: lactam 2-7
SMILES: CC[C@H](C)[C@@H](C(=O)N[C@@H](CC(C)C)C(=O)N[C@@H](CO)C(=O)N[C@@H](CO)C(=O)N[C@H](C(=O)N[C@@H](CCC(=O)O)C(=O)N[C@H](C(=O)NCC(=O)N[C@@H](CO)C(=O)N[C@@H](CC(N)=O)C(=O)N[C@H](C(=O)N1C[C@H](O)C[C@H]1C(N)=O)[C@@H](C)O)C(C)C)[C@@H](C)O)N(C)C(=O)[C@H](C)NC(=O)CN(C)C(=O)[C@H](Cc1ccccc1)NC(=O)[C@H](CO)NC(=O)[C@H](CO)NC(=O)[C@H](CCCNC(=N)N)NC(=O)[C@H](CCC(N)=O)NC(=O)[C@H](CC(C)C)NC(=O)[C@H](Cc1ccccc1)NC(=O)[C@H](CCCC(=O)O)NC(=O)[C@H](C)NC(=O)[C@H](CC(C)C)NC(=O)[C@H](CCCNC(=N)N)NC(=O)[C@H](CCC(=O)O)NC(=O)[C@@H](NC(=O)[C@H](C)NC(=O)[C@@H]1CCCCNC(=O)C[C@H](NC(=O)[C@H](CCC(=O)O)NC(=O)CC[C@H](NC(=O)CCCCCCCCCCCCCCCCCCC(=O)O)C(=O)O)C(=O)NCC(=O)N[C@@H]([C@@H](C)O)C(=O)N[C@@H](C)C(=O)N[C@@H]([C@@H](C)O)C(=O)N1)[C@@H](C)O
B4: Compound 38 (peptide)
peptide: {C20 diacid-γGlu}-RDGTATKATERLA[Aad]FLQRTTF[Sar]A[NMeI]LSSTEVGSNT[Hyp]-NH2
modifications: lactam 2-7
SMILES: CC[C@H](C)[C@@H](C(=O)N[C@@H](CC(C)C)C(=O)N[C@@H](CO)C(=O)N[C@@H](CO)C(=O)N[C@H](C(=O)N[C@@H](CCC(=O)O)C(=O)N[C@H](C(=O)NCC(=O)N[C@@H](CO)C(=O)N[C@@H](CC(N)=O)C(=O)N[C@H](C(=O)N1C[C@H](O)C[C@H]1C(N)=O)[C@@H](C)O)C(C)C)[C@@H](C)O)N(C)C(=O)[C@H](C)NC(=O)CN(C)C(=O)[C@H](Cc1ccccc1)NC(=O)[C@@H](NC(=O)[C@@H](NC(=O)[C@H](CCCNC(=N)N)NC(=O)[C@H](CCC(N)=O)NC(=O)[C@H](CC(C)C)NC(=O)[C@H](Cc1ccccc1)NC(=O)[C@H](CCCC(=O)O)NC(=O)[C@H](C)NC(=O)[C@H](CC(C)C)NC(=O)[C@H](CCCNC(=N)N)NC(=O)[C@H](CCC(=O)O)NC(=O)[C@@H](NC(=O)[C@H](C)NC(=O)[C@@H]1CCCCNC(=O)C[C@H](NC(=O)[C@H](CCCNC(=N)N)NC(=O)CC[C@H](NC(=O)CCCCCCCCCCCCCCCCCCC(=O)O)C(=O)O)C(=O)NCC(=O)N[C@@H]([C@@H](C)O)C(=O)N[C@@H](C)C(=O)N[C@@H]([C@@H](C)O)C(=O)N1)[C@@H](C)O)[C@@H](C)O)[C@@H](C)O
B5: Compound 39 (peptide)
peptide: {C20 diacid-γGlu}-KDGTATKATQRLA[Aad]FLQRSSF[Sar]A[NMeI]LSSTEVGSNT[Hyp]-NH2
modifications: lactam 2-7
SMILES: CC[C@H](C)[C@@H](C(=O)N[C@@H](CC(C)C)C(=O)N[C@@H](CO)C(=O)N[C@@H](CO)C(=O)N[C@H](C(=O)N[C@@H](CCC(=O)O)C(=O)N[C@H](C(=O)NCC(=O)N[C@@H](CO)C(=O)N[C@@H](CC(N)=O)C(=O)N[C@H](C(=O)N1C[C@H](O)C[C@H]1C(N)=O)[C@@H](C)O)C(C)C)[C@@H](C)O)N(C)C(=O)[C@H](C)NC(=O)CN(C)C(=O)[C@H](Cc1ccccc1)NC(=O)[C@H](CO)NC(=O)[C@H](CO)NC(=O)[C@H](CCCNC(=N)N)NC(=O)[C@H](CCC(N)=O)NC(=O)[C@H](CC(C)C)NC(=O)[C@H](Cc1ccccc1)NC(=O)[C@H](CCCC(=O)O)NC(=O)[C@H](C)NC(=O)[C@H](CC(C)C)NC(=O)[C@H](CCCNC(=N)N)NC(=O)[C@H](CCC(N)=O)NC(=O)[C@@H](NC(=O)[C@H](C)NC(=O)[C@@H]1CCCCNC(=O)C[C@H](NC(=O)[C@H](CCCCN)NC(=O)CC[C@H](NC(=O)CCCCCCCCCCCCCCCCCCC(=O)O)C(=O)O)C(=O)NCC(=O)N[C@@H]([C@@H](C)O)C(=O)N[C@@H](C)C(=O)N[C@@H]([C@@H](C)O)C(=O)N1)[C@@H](C)O
B6: Compound 43 (peptide)
peptide: {C20 diacid-γGlu}-KDGTATKATQRLANFLQRSSF[Sar]A[NMeI]LSSTEVGSNT[Hyp]-NH2
modifications: lactam 2-7
SMILES: CC[C@H](C)[C@@H](C(=O)N[C@@H](CC(C)C)C(=O)N[C@@H](CO)C(=O)N[C@@H](CO)C(=O)N[C@H](C(=O)N[C@@H](CCC(=O)O)C(=O)N[C@H](C(=O)NCC(=O)N[C@@H](CO)C(=O)N[C@@H](CC(N)=O)C(=O)N[C@H](C(=O)N1C[C@H](O)C[C@H]1C(N)=O)[C@@H](C)O)C(C)C)[C@@H](C)O)N(C)C(=O)[C@H](C)NC(=O)CN(C)C(=O)[C@H](Cc1ccccc1)NC(=O)[C@H](CO)NC(=O)[C@H](CO)NC(=O)[C@H](CCCNC(=N)N)NC(=O)[C@H](CCC(N)=O)NC(=O)[C@H](CC(C)C)NC(=O)[C@H](Cc1ccccc1)NC(=O)[C@H](CC(N)=O)NC(=O)[C@H](C)NC(=O)[C@H](CC(C)C)NC(=O)[C@H](CCCNC(=N)N)NC(=O)[C@H](CCC(N)=O)NC(=O)[C@@H](NC(=O)[C@H](C)NC(=O)[C@@H]1CCCCNC(=O)C[C@H](NC(=O)[C@H](CCCCN)NC(=O)CC[C@H](NC(=O)CCCCCCCCCCCCCCCCCCC(=O)O)C(=O)O)C(=O)NCC(=O)N[C@@H]([C@@H](C)O)C(=O)N[C@@H](C)C(=O)N[C@@H]([C@@H](C)O)C(=O)N1)[C@@H](C)O
B7: Compound 40 (peptide)
peptide: {C20 diacid-γGlu}-RDGTATKATQRLA[Aad]FLQRSSF[Sar]A[NMeI]LSSTEVGSNT[Hyp]-NH2
modifications: lactam 2-7
SMILES: CC[C@H](C)[C@@H](C(=O)N[C@@H](CC(C)C)C(=O)N[C@@H](CO)C(=O)N[C@@H](CO)C(=O)N[C@H](C(=O)N[C@@H](CCC(=O)O)C(=O)N[C@H](C(=O)NCC(=O)N[C@@H](CO)C(=O)N[C@@H](CC(N)=O)C(=O)N[C@H](C(=O)N1C[C@H](O)C[C@H]1C(N)=O)[C@@H](C)O)C(C)C)[C@@H](C)O)N(C)C(=O)[C@H](C)NC(=O)CN(C)C(=O)[C@H](Cc1ccccc1)NC(=O)[C@H](CO)NC(=O)[C@H](CO)NC(=O)[C@H](CCCNC(=N)N)NC(=O)[C@H](CCC(N)=O)NC(=O)[C@H](CC(C)C)NC(=O)[C@H](Cc1ccccc1)NC(=O)[C@H](CCCC(=O)O)NC(=O)[C@H](C)NC(=O)[C@H](CC(C)C)NC(=O)[C@H](CCCNC(=N)N)NC(=O)[C@H](CCC(N)=O)NC(=O)[C@@H](NC(=O)[C@H](C)NC(=O)[C@@H]1CCCCNC(=O)C[C@H](NC(=O)[C@H](CCCNC(=N)N)NC(=O)CC[C@H](NC(=O)CCCCCCCCCCCCCCCCCCC(=O)O)C(=O)O)C(=O)NCC(=O)N[C@@H]([C@@H](C)O)C(=O)N[C@@H](C)C(=O)N[C@@H]([C@@H](C)O)C(=O)N1)[C@@H](C)O

molecular target: recombinant human amylin 3 receptor (hAMYR3) (human), P30988; assay: cell-based or functional assay
Sequence (P30988 25-474, chain 1 of 2): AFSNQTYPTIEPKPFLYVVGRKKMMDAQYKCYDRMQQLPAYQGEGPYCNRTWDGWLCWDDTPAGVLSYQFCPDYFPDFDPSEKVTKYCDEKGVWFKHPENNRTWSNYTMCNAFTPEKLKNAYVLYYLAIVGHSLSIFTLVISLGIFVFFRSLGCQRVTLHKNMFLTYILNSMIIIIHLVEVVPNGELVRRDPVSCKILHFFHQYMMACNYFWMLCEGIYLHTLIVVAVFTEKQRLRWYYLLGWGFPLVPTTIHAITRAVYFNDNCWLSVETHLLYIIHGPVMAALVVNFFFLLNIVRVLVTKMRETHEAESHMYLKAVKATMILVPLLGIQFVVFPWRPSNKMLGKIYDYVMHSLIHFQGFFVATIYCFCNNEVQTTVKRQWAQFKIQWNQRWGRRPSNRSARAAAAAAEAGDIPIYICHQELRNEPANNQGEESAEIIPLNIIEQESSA
Sequence (O60896 24-148, chain 2 of 2, further chain): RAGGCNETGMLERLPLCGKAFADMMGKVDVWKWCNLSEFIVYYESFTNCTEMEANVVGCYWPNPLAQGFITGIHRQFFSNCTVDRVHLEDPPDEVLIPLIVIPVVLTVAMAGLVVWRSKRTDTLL

| hAMYR3 EC50 [nM] (cAMP formation, 1321N1 cells expressing hAMYR3) | Binder |
| --- | --- |
| 0.003 nM | B1 |
| 0.024 nM | B2 |
| 0.031 nM | B3 |
| 0.06 nM | B4 |
| 0.024 nM | B5 |
| 0.007 nM | B6 |
| 0.008 nM | B7 |

molecular target: recombinant human calcitonin receptor (hCT-R) (human), P30988; assay: cell-based or functional assay
Sequence (P30988 25-474): as the sequence (P30988 25-474, chain 1 of 2) above

| hCT-R EC50 [nM] (cAMP formation, 1321N1 cells expressing hCT-R) | Binder |
| --- | --- |
| 0.006 nM | B1 |
| 0.095 nM | B2 |
| 0.116 nM | B3 |
| 0.114 nM | B4 |
| 0.094 nM | B5 |
| 0.021 nM | B6 |
| 0.028 nM | B7 |
